Measurements as given in the NTF2 design screens of Basanta et al. (2020).

Experiment: protease stability score; higher = more stable; yeast display proteolysis, trypsin and chymotrypsin;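 note: log10 excess protease needed over predicted unfolded state with 0 meaning unfolded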

Going from “DETHLKLLEHFFKQWMTGNQQELRSLADPNVEYVYGEHRVRGREQMAKDLVRELHEMTISMRSVTSDIRGDQAVVTVNFQQDKNGEPDEVNVKMRAEVHNGRIKSMNAKFHQ” to “DDRERAERYLRQVENALHTNDPRQLKNQADKDVKIEIGETDLHGTKDFVKMMKEIINRADHARFTVRSVRRHGDKMRVEFTAEVNHNGRRRTHTIRITLQLENGDVVLQSLRVE”, the protease stability score rises from -0.287 to 0.302.

Compared with “DEKRVKEMVKKIFEVIKKGDEDKIVKQLMPNVEYHYIDQKFEGEDAARHIVKIVKHIGAEDREKKHEVNGDTMTVVFVYHNGDKTIQTKATVTYEGDVVKKAEVRLDDEVKKLARKG”, “DDHNARSALTIAFTAIRQGDEQKIRELMDKHVDVHVGDEVVHGRDQVATRLRKLKERVDHIQVKSMSVQGDTLDLNIIFRINGKDLEIKFDIRFRNGRVESMTVRVTDEKKYKDIHQ” is higher in protease stability score: 0.088 for the first, 0.475 for the second.

Going from “DQRERVKKLFDRFQHNIKHGDKSKATNQFPPDVTMSIGDEDLHGRDAAKRYADNVANNADRFHHEIQDYKQKGNNANLRVKIVLNHNGTNHSHEADWVAVVHNGQARLKEVKFD” to “DHDALERFQEFLENLKSGNPHDLHNMLDKNASLQVGDKTVTGRDQIVDHWRRQREEWEVTYRSVDLKVSGDTVKADFDFQVDINGQPNRVSRQAHVKISNGKLKTLQYRVSEDVKRNIEG”, the protease stability score falls from -0.078 to -0.254.

Going from “DEEYNKKVQDIFNTNDPSQFKSLIDPNARMEVGDHVFHGRHNIVKHLKKFRDQVDHFEIKEIDVKGNKLSMEFVAVVNGKRVRATMSQQAHNGRMQEIRIKATSEEDKKILKEVTS” to “DEEKIARHVVRTWMENLKTGNFKEIEKMIDKDVEFEIGDKTVTGREEVRKRRKHEKDQADHIEVQVHDVRARGDKVNIDVVMEINNNGRTTTRRFVLVLSIHNGHAKIKMVTQG”, the protease stability score rises from -0.048 to 1.09.

Compared with “EEHIKEVLDRVREAWRKNNPDDLKRNFDPNARFNIGNKRYHGMEHFVEDVARLLHEIHVEIHYHHITFDGNEARFSYDAVFNVDGRPIRDSMSRRVILHNGKIVDMKVDVDPKELDKKLK”, “DEELYKLMEQVIKAWEENDETQLKRLADPNVKVSIGDKRVHGRDQMAEDAKRRKKQLRFNIDIKSYSVHNGRVNARATVHNDVNGQPREDTVNIQMEWSNGQLTNFNMRMDEDFLRKIRS” is higher in protease stability score: -0.093 for the first, 0.752 for the second.

First: DETKQQELIHRLLEALETGNPDEYIKNLDKDVRVVVGDTEVHGREDLKKLFERLTHQIDHQHIKDYKVSNGQADVKLVVVNNGQERRLTIKIVVRNGHVKEVVWNDR
Second: DEEQVKKVVEELLKAVHNGNVDQIKKIVKENVEFTLGDKTMKGQEDVEKDVKQLHDKGADFKVDEVEVTGDHATANTKWQIGDQKAHVQVHYQVRDDTVERVEVRWSEDAKKAIKQG
The protease stability score of the first is higher: 1.77 for the first, -0.141 for the second.

Going from “DDQERREIAKNFQRGNEQVVKKLVDPNARIRVGDKTLHGRDQMSHVFKRLQEQVDHIDVKHYTISGEHIVIDAIFVINGKNIRMVIVVQVENGRVKRVDFKYTNEEQKKQLERDLS” to “EEELLERIKTFVKVYEHGDFKRLHRNLDKDVRVVVGDKHVRGREEAVRDMSEELRNMDQKIDFKTMHITNGKANLDFHFQNTVNGQPRRDRAHLIIRLHNGKFQEIKIQFSEEQERRQKG”, the protease stability score rises from 0.004 to 0.608.

Compared with “DHSDAEQVHRAIEENNFDELVDLADENVSVTIGDYTLHGREDFKHYQEVLKRQVDNVEFKTIDIQGDKIDRTVEATVNGRRYVARIVVKVKNGKIKSQKVHATDEKQNEQLRENLK”, “DDEDAKHLMQVLQNGDEDRFAELVDENAHQTIGDKTIHGRSEFDRIHEKLKKRIDNFRVNDYRIDNGSVNADVSANVNGQKIRFKYQAHVTNGHIKEMRFQATDPRQEDKWHEMQK” is higher in protease stability score: -0.043 for the first, -0.031 for the second.

Compared with “DEDAARKIRKLVEDWANGDPQSVADQMDENAEVHIGDQTLHGRDHVRKFVEKLSEQIRISVQSVTVRASGNHITAHVQMEVDVNGHPDTITFRIHADVDNGRIKSMEYRMDEQEQRKRTS”, “DDDAMRKAHEFYTAYNTNDEDTLSKQFDPNARIRYGDEVIHGREQLKKWMEEIQREMSVSVRVKSMKVRGDEIHIKFDMTVDINGNPLEFDAQAEFRFRNGKFIDFTLQIPEEAQKQEHG” is higher in protease stability score: 0.346 for the first, 0.704 for the second.

Going from “DEKKLKDKAETLVENFKTGNEEEFSRMADENATLVVGDKTLRGREDLQTFISEFKKTVDHVEVRHVTADNGRVTIDMVVDINGRRVRVHVVIKFKNGHIKDVRVDPRMKRAMDQ” to “DEKKLEELLRKLFEAAQKNNVDEMRKFLAPDVQYKYGDKRYEGEKVADTAVKVMREVGAEVRVKEEEVKGGEAEATFQYHKGDKTVETTARVRYEGDKVKEVEVKLSEEVKKILEQG”, the protease stability score falls from 0.905 to 0.128.

Compared with “DEHNAHVLKQAMEAMATGDEKRFVELVDPNARMKVGDKEIKGREDFQEYLTDLHRHARVEVHHIHVNDNGDRFEIDVTQVIEINGRPDTKRMTLEAVAHNGQVKEINLRVPEEEWRRLER”, “DEEVKHSVDKYLQAVRQGDPDKLREMADENVTVDIGDTTYHGMSEYARRVVERQKKIRIHYDLKSLTVSGNHVKIDQEVVKHHNGKPERNRVTVIMHLNNGRIQSMSVKVDG” is lower in protease stability score: 0.316 for the first, 0.277 for the second.

Compared with “DEDQRRKLEDLLRAYRTGDEKRIVEMADPNVEMHVGDHEVHGMEKIARKQVRTNQEARVDYEDWRLDFQGDKVNFEFDLRRDHNGEPETHKVDMTIVFKNGRIKSQSVRNTK”, “DDHREEQMNRVAETGNFKHLASQLDKDATAFYGDKTVEGREHIQENLNRLHSHIDHIEYKKVEVKNGKVDVDFTAVINGTTFRAQMRLVVHNGRIKTISMRARDEKDKKLIHEWLS” is higher in protease stability score: -0.135 for the first, 0.83 for the second.

Compared with “DEQEQAKDFARQLQKVFRYGDEERARQLADKHVKVNVGDKIFHGREKVQKWIREIKNRSDKYKIDIKSIRVKNGRITIEFKAQEEFNGERRRVTVNAKAKLDNGEIRLTSVDQK”, “EDDRQRKFAKHANKVMETGDPREMEKLADENVRVVVGEKDVHGRERAQEWAKELSDRVDQIRIKDVDVDGNKVVIDLIVDHNGRQSTVTVDIEFHNGRAKSVTMHEK” is lower in protease stability score: 0.128 for the first, -0.244 for the second.

First: DEENVKVMEHWNKATSNNDEDKHRELADENANFNIGDKRIHGREDFVRWVQELKNRLRIKVEVNSIQAQGDKVTVHYKLKQETNGEPDTRNVKATARIQNGRVRSLTVKDNQ
Second: DEEANKVAKKLWEAIDHGNKEQAKELADPNAKAHVGDKSIHGMDTFVTWIKEIFDTMSFEVRIEDMKVHNGRLSANVRATFDINGQPRHQQARFKMDIHNGKISKVVIEMPKEKWKTILR
The protease stability score of the first is lower: -0.116 for the first, 0.97 for the second.

Going from “DDEDQRDQVRRLSKQMQTGDPNKVRQLLDPNAEVHIGDTTVHGREEVMRSQDKLRKRIDHFEMQDMKVDGESVVAHAVFRVDGKDITLEVRARYTNGRVKKMSFNPEAITRIRS” to “DEEHWRKIAEDFMHALRTGDPRTLRKLMDEDVQYVYGDQRVTGHEEAANRFHELRQKVDHVTVKHIEVQGNKVVIDVVMQVNGKEARMTIVIVFENGRAKVLTFDPEQIKKLEG”, the protease stability score rises from 0.127 to 1.23.

First: DEDANRLVEEYIRAVEKGDEDQARRMMDENVTVKVGDKTVHGHDHQAREMNKVKKQARIEIKDYRLDNSNGRVVIRMTFIADRNGKPITFDIVIIINFHNGRAKNMHVHISEEELKRLEG
Second: DDEDFKKFKELVETGDWSSLRKQADKNVRQRVGDKQIHGKEEFSRLLKHLQDQIDHVEIKHMQDEPNHLRVDVVWNINGVRVRFQYIVELSNGHIKYIKIDVTDENKLTKLQDLLQ
The protease stability score of the first is higher: 1.06 for the first, 0.491 for the second.

Going from “DDDEMRELIKSIEEVLTDGDPDEFLKQIDPNAKAQYGDTRVSGSEEIRKMAEKFSDRVDHVDVRDIKVSGDTATFDMQIDHNGRNDTVIMIVEAHNGKVKHVQYHKG” to “DEEDVDRAARKFAEGNPDDVLKLADPNAELHVGDQTVHGKEDLERVMELDKRRIDHIHVNSMSVQGDNVKVLFKVVVNGRNIEFTLTANAHNGSIQFVMLNFTDERDEDKRRKALS”, the protease stability score rises from 0.142 to 0.28.

Going from “DEDAVKAYERLLTAWNHGDPDQAKHQVDPNVRVQVGDKQIHGREELARQIERRRREANIHNQLEDYRDNGEEIQLHVEVTEDHNGNPDTKTYTAYAQFTNGKMQELTINDHG” to “DERKAEHWLDQLAQMLRTGDESHVARLMDENVNVVIGDQRFHGSDEARKAIRQLKERIDHLEVKDMKNEGNKMVVKAVADVNGRTHHLDVQMEFKNGRITRASFDPTAIKQAEG”, the protease stability score rises from -0.219 to 1.14.

Compared with “DEEVAKRMAETWVKAVEKGDTDQVQKVYKPNVEWVAGDEKHQGVEVVKKMMQKVKKLGVEFQLRKRKVEGGTVEFHYDMKNGNDTVTFTVRIDAEGGRVDRVEVEFDEKAQKVVKKG”, “DEDATDNVRQWFEARNQNDENRLMQLVDPNAKIQVGDKFVHGKEDLEKQVKREKDQIHLHMKDMKFTDTGDTVKVRIDYRDEHNGRPKEDRMVAYATVHNGRIENLEVDSDR” is lower in protease stability score: 0.183 for the first, -0.179 for the second.

Compared with “DTQKIVDDIAHEVVEVLKTGDPRKVVKLVDENARLQVGDKIVRGREDVKKRAEKENSRVDHREARVQEVTMHNGDVTIRFRVKDTHNGRSDSREYTIHLQEHDGKVFIQNMEDR”, “DESELEQLKRDWEHNDFDQLVRNMDKDVRLRIGNKQWHGHEQVQNFNRKMQEQIDHQHIRHIETRGNKIRVTYEIDINGQTMVVNAEAYIDNGRLKSMHVKFTSEEHRKVFEKAVD” is higher in protease stability score: -0.261 for the first, 0.746 for the second.

Compared with “DEERVRQIADKMFKAIISGNSKDVQQVVKPNIQYEYGDEKYQGPKVVDQLVKVVKKIGAEVREREKTVHGDTMTAVFQYHKGDTTVQTEAEVKYEGDKAKRLRVKLSEEAQKVIKQG”, “DEETAEQVMRELNRLLKNGNPDEMMTMMDKDARIEVGDKTYHGRDDIRRQNKEDRRRVDRFEVTSVDVRGDKADIDARFQFNGKTKRYQLFAKFHNGRVKHLEIEDK” is higher in protease stability score: -0.114 for the first, 0.034 for the second.

Going from “DDQKNLEKWVRDFQEVNKTGDPDRFRNLFPPNAEMTIGDKTIKGSETVREYMEHLVNRYDHLDVQVESIHAEGDKLTVKLRLVFNTNGKNDQYVNKVLLDDHNGRLKAHEVHQE” to “DEESRRKQAQEFNENLEQGNFEELMKLLDPNAHIIIGEKEVKGREDIRKQQEEDQRRIDHVQIQSVTAHGDKIRALIRFTVNGQQTEVHVVLSFHNGRVKEMKIHTK”, the protease stability score falls from 0.7 to -0.324.

First: DDHNVRLAKKFREAYETGDEETVKSMADPNAHYHVGDKRITGRERQVRKMTRERRDMRVQVESIRYSNRNGRVDVKIVEVRNDNGHPKRMRIVLHVNFQNGKAKEFQIEDQE
Second: DEELLELVRRWITAVRTNDPKQLEKNFDPNAKFEYGDKSVRGKEQVVREQEKQVQEIRFSYRISDFRVDNGRVEMEVKVHEKHNGRPDTKTVKWKAEMSNGRLVWMRMQKRQ
The protease stability score of the first is lower: 0.226 for the first, 0.412 for the second.

Compared with “DDEVVKEVNNALKTNDFKSMVDLADKNARIRVGNKTYRGREEVERFQTILHQRADHVQFRKIHVEGDTAVVDMVVVVNGHKLKYTVKIRVHNGKITSLRMQFTDESDERVMSKVLG”, “DESQAEALHEVLQAERTNDPKKVEEQMDPHVNIVIGDKTYHGRDRIREDVKRKIDEMRVHVESVRFDEQGDKARAEATLRYNHNGRPSSKKIVIQMKAENGQIKTMRVHDTK” is lower in protease stability score: 0.8 for the first, -0.646 for the second.

First: DEKHYKKVLKRVLDYFMKGNKEQVKKIAKPDVEFHAGKMKIEGTDHLAKYYEKLQRKGVKLEIKEQHVTGDTVEVKYELEVGGTKVTVKATLKVKDDKVDKAEAKNDDDYHKRVKKG
Second: DEEAMKVFEEIMRAIEQGDPDRIIENADEDVRFDVGDKRLHGREKAAKDLVDFLHHQRTHIRSYDTSVSGEKLTLDVDMVNQNNGNPNSKRYTVDAHVHNGKLKSVKETDDQ
The protease stability score of the first is higher: 0.117 for the first, -0.27 for the second.
